1 molecule from patent US8440629B2, “Cyclic receptor-associated protein (RAP) peptides” (Raptor Pharmaceuticals Inc., priority 2007, dated 2013) can be followed below.

Experiment in all cases: Solid phase binding assay
Test [1] addresses T1, MAT CR34 (Homo sapiens, UniProt Q9Y5Y6).
T1 construct: MAT CR34 (ST14 CR34), amino acids 525-602; made in house; host or cells: E. coli BL21(DE3) CodonPlus-RIPL, pET30(+)a
T1 sequence (Q9Y5Y6 525-602): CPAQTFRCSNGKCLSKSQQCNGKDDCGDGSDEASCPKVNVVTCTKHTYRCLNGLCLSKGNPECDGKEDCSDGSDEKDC
Conditions: separate set of experiments.

Test [2] concerns the target T2, LRP6 CR1-3 (Homo sapiens, UniProt O75581).
T2 construct: made in house; host or cells: E. coli BL21(DE3) CodonPlus-RIPL, pET30(+)a
T2 sequence (O75581 1247-1363): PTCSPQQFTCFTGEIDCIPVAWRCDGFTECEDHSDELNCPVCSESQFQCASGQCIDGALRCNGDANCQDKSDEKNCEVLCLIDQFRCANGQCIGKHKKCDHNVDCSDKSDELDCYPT
The following applies: highest ligand concentrations tested.

For test [3], the target named is T3, MAT CR12 (Homo sapiens, UniProt Q9Y5Y6).
T3 construct: termed MAT CR12 (ST14 CR12), amino acids 452-524; made in house; host or cells: E. coli BL21(DE3) CodonPlus-RIPL, pET30(+)a
T3 sequence (Q9Y5Y6 452-524): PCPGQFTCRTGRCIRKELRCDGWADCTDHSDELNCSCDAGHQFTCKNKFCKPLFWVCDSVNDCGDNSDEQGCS
Conditions: separate set of experiments.

Test [4] deals with T4, MAT CR23 (Homo sapiens, UniProt Q9Y5Y6).
T4 construct: made in house; host or cells: E. coli BL21(DE3) CodonPlus-RIPL, pET30(+)a
T4 sequence (Q9Y5Y6 487-566): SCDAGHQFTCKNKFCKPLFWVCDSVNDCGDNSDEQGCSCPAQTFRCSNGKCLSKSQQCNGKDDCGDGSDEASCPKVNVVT
The following applies: highest ligand concentrations tested.

The target of test [5] is T5, LRP6 CR23 (Homo sapiens, UniProt O75581).
T5 construct: the two CR pairs from LRP6 within the triplet (CR1 and 2, termed CR12, CR2 and 3, termed CR23); made in house; host or cells: E. coli BL21(DE3) CodonPlus-RIPL, pET30(+)a
T5 sequence (O75581 1286-1363 limits assumed): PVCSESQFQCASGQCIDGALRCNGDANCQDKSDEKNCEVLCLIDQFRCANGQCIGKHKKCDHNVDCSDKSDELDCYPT
Conditions: highest ligand concentrations tested.

Test [6] concerns the target T6, LRP6 CR12 (Homo sapiens, UniProt O75581).
T6 construct: LRP6 CR12 and LRP6 CR23, amino acids 1247-1322 and 1323-1363; made in house; host or cells: E. coli BL21(DE3) CodonPlus-RIPL, pET30(+)a
T6 sequence (O75581 1247-1322): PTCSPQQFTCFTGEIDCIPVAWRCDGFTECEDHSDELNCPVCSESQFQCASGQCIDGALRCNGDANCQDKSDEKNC
Conditions: highest ligand concentrations tested.

Test [7] addresses T7, VLDLR CR78 (Homo sapiens, UniProt P98155).
T7 construct: a CR pair from VLDLR (CR78); made in house; host or cells: E. coli BL21(DE3) CodonPlus-RIPL, pET30(+)a
The following applies: highest ligand concentrations tested.

B1: RAP d3: third domain of human RAP, amino acids 201-319 of mature RAP, bacterially expressed with hexahistidine and S-peptide tags (SEQ ID NO: 92) (protein, listed as Homo sapiens)
chain: LDRLRRVSHQGYSTEAEFEEPRVIDLWDLEQSANLTDKELEAFREELKHFEAKIEKHNHYQKQLEIAHEKLRHAESVGDGERVSRSREKHALLEGRTKELGYTVKKHLQDLSGRISRAR
modifications: hexahistidine and S-peptide tags
Regarding B1, the “binding (in words)” value in test [1] and in test [3] was “undetectable” throughout. For the same molecule, the “binding relative to that for LRP1 CR3-5” value in test [2], in test [4], in test [5], in test [6] and in test [7] was “less than 5%” throughout.
